The data set concerns MS2 coat protein. Briefly: apparent KD of MS2 coat protein; higher = weaker reporter binding. The settings on record: Eterna round: R107. A digest of the protocol: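 Binding of SNAP-549-labelled MS2 coat protein was measured on designed RNA switches transcribed on-chip from Illumina sequencing clusters. The protein rose in twofold steps from 0.7 or 1.5 nM to 3 µM, with 0.8–1.5 h per step early on and 10–20 min per step later, in 100 mM Tris-HCl pH 7.5, 80 mM KCl, 4 mM MgCl2, without or with constant ligand. Each design's apparent KD is the median of fits to its normalised cluster binding curves.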

Where [1] appears, read: input ligand: theophylline 20 uM.
Where [2] appears, read: input ligand: tryptophan 2.4 mM.
Setting [3] is: input ligand: theophylline 2 mM.

“GAGCUGAUGUAGAGAUUAUAUAAAAGAGAUACCAGUACAGAAAUGUACCCUUGGCAGCUCAACUUUACAUGAGGAUCACCCAUGU [Ex Theophylline A 19]”: the “apparent KD of MS2 coat protein” value is, setting by setting: (input ligand: arginine 13.2 mM) 15.4 nM; under setting [1], 15.8 nM; under setting [2], 13.9 nM.
As for “GAGUCCACGGCGGCCGCCACUCGCGGCGCCACAUGGCGCCGGGACAUGAGGAUCACCCAUGUCCCGAGGACCGGGCCGAUCCUUA [Same State Typrtophan B GF3]”, the “apparent KD of MS2 coat protein” value (input ligand: arginine 13.2 mM) was found to be 11.2 nM; the “apparent KD of MS2 coat protein” value (input ligand: none) was 21 nM; the “apparent KD of MS2 coat protein” value under setting [1] is 26.6 nM; the “apparent KD of MS2 coat protein” value under setting [3] was 31.5 nM; the “apparent KD of MS2 coat protein” value under setting [2] stood at 12.9 nM.
In the case of “GAUACUAUGAAAGUAGUAUCUACGUGUUGACGAGGACCGGUACGGCCGCCACUCGACAUGAGGAUCACCCAUGUAUAGAAUAUGU [TrypA_2]”, the “apparent KD of MS2 coat protein” value was 25.1 nM (input ligand: arginine 13.2 mM), 39.2 nM under setting [1] and 31.9 nM under setting [3].
Consider “GAUAUGUUUCGAAGGAGCGGCCCUUGAUCCUCAUGAGACAUGAGGAUCACCCAUGUCUCGGGCCAGGUAGGUCGCGAAAUAUAUC [Astros-omei-mod4]”, for which the “apparent KD of MS2 coat protein” value was 30.3 nM (input ligand: arginine 13.2 mM); 19.2 nM (input ligand: none); 32.1 nM under setting [1]; 21.4 nM under setting [3]; 19.5 nM under setting [2].
With “GAUAUUUGAAAACAAAUAUCAGUGGGUGAACGAGGACCGGUACGGCCGCCACUCGGACAUGAGGAUCACCCAUGUCCAUGUGAAA [AstrosExyTryA#7]”, the “apparent KD of MS2 coat protein” value (input ligand: arginine 13.2 mM) amounted to 13.9 nM, the “apparent KD of MS2 coat protein” value under setting [1] was found to be 18.2 nM and the “apparent KD of MS2 coat protein” value under setting [3] worked out at 17.6 nM.
Consider “GAUCCUCGUACGGAUACCAGCGACUAACAUGAGGAUCACCCAUGUGAUAAAGAAAAUAUUUGCCCUUGGCAGCCGAAUAGAUAGU [#21 Same State - Theophylline B]”, for which the “apparent KD of MS2 coat protein” value runs as follows: (input ligand: arginine 13.2 mM) 36.5 nM; under setting [1], 91.5 nM; under setting [2], 74.2 nM.
Take “GAUGAUAUUGCAGAUACCAGACACAUGAGGAUCACCCAUGUCGCUGGGUUACUGGAUCGUGUCCCUUGGCAGCUGCGAUAUCAUC [Austria]”: the “apparent KD of MS2 coat protein” value reads like this: (input ligand: arginine 13.2 mM) 69.7 nM; under setting [1], 379 nM; under setting [2], 294 nM.
Turning to “GAUUAAACAUGAGGAUCACCCAUGUAUAUACGAGGACCGGUACGGCCGCCACUCGAAAACGAGUAUCCUCGAAUAAACAUGAUAA [AK 2 SS Trypt (A)]”, the “apparent KD of MS2 coat protein” value (input ligand: arginine 13.2 mM) stood at 27.7 nM, the “apparent KD of MS2 coat protein” value under setting [1] was 48.3 nM and the “apparent KD of MS2 coat protein” value under setting [3] turned out to be 52.8 nM.
As for “GCACCAGGUACGGAUACCAGAGCAAGCCAAAUGAGUGAACAUGAGGAUCACCCAUGUUUGCUCCCUUGGCAGCCGUACCUGGUGC [ETB NP+V+V2 #11 +-Same Structure]”, the “apparent KD of MS2 coat protein” value runs as follows: (input ligand: arginine 13.2 mM) 7.91 nM; under setting [1], 12.2 nM; under setting [2], 9.35 nM.
For the sequence “GCACCAGGUACGGAUACCAGCUGCCCGAGAUACAUGAGGAUCACCCAUGUGACCUGGUUUAGCCCUUGGCAGCUGUACCUGGUGC [#14 Same State - Theophylline B]”, the “apparent KD of MS2 coat protein” value is, setting by setting: (input ligand: arginine 13.2 mM) 13 nM; under setting [1], 13.8 nM; under setting [2], 14.3 nM.
With “GCACGAGUAAGACCUGACUUCAACAAUGAUACCAGACUAGUAAACGUCCCUUGGCAGCAUCAGACAUGAGGAUCACCCAUGUGGC [theeternabot_exclusion_MS2_Theo_A_44]”, the “apparent KD of MS2 coat protein” value reads like this: (input ligand: arginine 13.2 mM) 26.4 nM; under setting [1], 39.1 nM; under setting [2], 34.3 nM.
For “GCACUACAUGAGGAUCACCCAUGUGCAGAUACCAGAGGUGUAUGCCUCCCUUGGCAGCUGCGUCGCUCUGGAAACUUAUUGGUUU [Same State Theophylline A GF17]”, the “apparent KD of MS2 coat protein” value by setting is: (input ligand: arginine 13.2 mM) 18.3 nM; under setting [1], 26.6 nM; under setting [2], 18.6 nM.
Take “GCAUGCGAUACCGAUACCAGCUACUCCAUGGCGCUCCACAUGAGGAUCACCCAUGUAAAUAGCCCUUGGCAGCGGUAUUGAGAUG [Anrabegema]”: the “apparent KD of MS2 coat protein” value (input ligand: arginine 13.2 mM) was 16.4 nM, the “apparent KD of MS2 coat protein” value under setting [1] was found to be 53.9 nM and the “apparent KD of MS2 coat protein” value under setting [2] stood at 21 nM.
Take “GCCAUCGGCGGAAGCCGAUGGGAUACAGAAGGAGCGUGGAUUAACACAGGUAGGUCGCUGGACAUGAGGAUCACCCAUGUAAUAG [SSAA #8]”: the “apparent KD of MS2 coat protein” value was 17.4 nM (input ligand: arginine 13.2 mM); 26.2 nM (input ligand: none); 27.2 nM under setting [1]; 32.4 nM under setting [3]; 21.7 nM under setting [2].
Turning to “GCCCUGCGCCCGGGACCGGCAAGAUCCAUGCGAGGACCGGUACGGCCGCCACUCGCAGACGUACAUGAGGAUCACCCAUGUCCUC [theeternabot_exclusion_MS2_Trp_A_24]”, the “apparent KD of MS2 coat protein” value is, setting by setting: (input ligand: arginine 13.2 mM) 140 nM; under setting [1], 838 nM; under setting [3], 867 nM.
For “GCCGCUGCCGCGAUAUGUAUGGGUGUGUAACGAGGACCGGUACGGCCGCCACUCGCGAUCGCACAUGAGGAUCACCCAUGUGUCC [Exclusion Tryp A GF18]” the same measures were 26.5 nM, 72.4 nM and 68 nM.
In the case of “GCCGGACUUUCGGCCGCCACUGAGAGAGUCGUGUGAACAUGAGGAUCACCCAUGUAAUAUAUAUACAGGACCGGGAGGGUUGGGC [4.R]”, the “apparent KD of MS2 coat protein” value (input ligand: arginine 13.2 mM) was determined as 10.5 nM; the “apparent KD of MS2 coat protein” value (input ligand: none) turned out to be 13.7 nM; the “apparent KD of MS2 coat protein” value under setting [1] was determined as 15.1 nM; the “apparent KD of MS2 coat protein” value under setting [3] was 14.4 nM; the “apparent KD of MS2 coat protein” value under setting [2] stood at 12.4 nM.
Turning to “GCGAACGGACCGUUGCCUUCCUGUGUGCGGCGAGGACCGGUACGGCCGCCACUCGACUGCGUACAUGAGGAUCACCCAUGUUAGA [theeternabot_exclusion_MS2_Trp_A_16]”, the “apparent KD of MS2 coat protein” value reads like this: (input ligand: arginine 13.2 mM) 41.2 nM; under setting [1], 40.2 nM; under setting [3], 31.8 nM.
Consider “GCGAUGGAGCGAAGGAGCGGCUGUGACUACAUGAGGAUCACCCAUGUACGAUUGUAAGGUAGCCAGGUAGGUCGCGCUCCAUCGC [SSAB NP+V+V2 #18]”, for which the “apparent KD of MS2 coat protein” value turned out to be 14 nM (input ligand: arginine 13.2 mM); 16.3 nM (input ligand: none); 22.5 nM under setting [1]; 24.6 nM under setting [3]; 15.8 nM under setting [2].
“GCUAGGUCAUCGGCCGCCACUAACGACGGCUCCAACAUGAGGAUCACCCAUGUGCCACAUGCGCAUAGGACCGGGAUGACCUAGC [SSTB NP+V+V2 #4]”: the “apparent KD of MS2 coat protein” value reads like this: (input ligand: arginine 13.2 mM) 25.6 nM; (input ligand: none) 36.9 nM; under setting [1], 55 nM; under setting [3], 45 nM; under setting [2], 14.6 nM.
For “GCUAGUGGCAGAAGGAGCGGCAUACUUGCAAGUGACAUGAGGAUCACCCAUGUAAGGGAAUGCCAGGUAGGUCGCUGCCACUAGC [EAB NP+V+V2 #1 +-Same Structure]” the same measures were 34.9 nM, 31.7 nM, 54.5 nM, 38.7 nM and 28.5 nM.
On to “GCUGCCAUACGAAGGAGCGCUGUUGUAGUGAGGCGAACAUGAGGAUCACCCAUGUGGCAGCAGCAGGUAGGUCGCGUAUGGCAGC [EAB #13]”, for which the “apparent KD of MS2 coat protein” value (input ligand: arginine 13.2 mM) stood at 13.7 nM; the “apparent KD of MS2 coat protein” value (input ligand: none) came out at 18.6 nM; the “apparent KD of MS2 coat protein” value under setting [1] was 35 nM; the “apparent KD of MS2 coat protein” value under setting [3] is 33.9 nM; the “apparent KD of MS2 coat protein” value under setting [2] worked out at 26 nM.
“GGAAAAUAUAGGGAUACCAGAUAUGGCGUUGACAUGAGGAUCACCCAUGUCUUAGCAGUGAUCCCUUGGCAGCCCACACCAUCCG [theeternabot_sameState_MS2_Theo_B_13]”: the “apparent KD of MS2 coat protein” value came to 40.9 nM (input ligand: arginine 13.2 mM), 61.3 nM under setting [1] and 64.5 nM under setting [2].
For “GGAAACCCGACGGCCGCCACUAACGGUCUCAAAAGAGGUUGAACACAUGAGGAUCACCCAUGUAAUAGGACCGGGUCGUGUGAAA [Design 1]”, the “apparent KD of MS2 coat protein” value runs as follows: (input ligand: arginine 13.2 mM) 17.9 nM; under setting [1], 24.9 nM; under setting [3], 19.4 nM.
Consider “GGAAGCAGGACUGAUACCAGUCCAGCGAAUCAUACGACGCAACAUGAGGAUCACCCAUGUGACCCUUGGCAGCAGACUGCUACCG [Same State Theophylline B GF 27]”, for which the “apparent KD of MS2 coat protein” value (input ligand: arginine 13.2 mM) amounted to 33.1 nM, the “apparent KD of MS2 coat protein” value under setting [1] is 37.2 nM and the “apparent KD of MS2 coat protein” value under setting [2] turned out to be 32.2 nM.
In the case of “GGACUAACCAGAAGGAGCGACACGCAGAAACUGCAAUUUCCUCCGCACGAGGAUCACCCGUGUCAGGUAGGUCGCUGGUUAGUCG”, the “apparent KD of MS2 coat protein” value by setting is: (input ligand: arginine 13.2 mM) 20.6 nM; (input ligand: none) 22.1 nM; under setting [1], 35.1 nM; under setting [3], 25.8 nM; under setting [2], 21.1 nM.
